Source: the DeepSol protein solubility set

Test: soluble on expression in E. coli; label from the status in PepcDB or PDB records

**Q.** Which “soluble on expression in E. coli” value does the source give for “MSLTDLTKANEWLKDADAVIVTAGNGMAKEEGLDILSEENFDNQFGEIAEKYDVHTIGDALDKEFDSWEEKWTFWSKLINEYSLQYEKSENMKALEKLLEDKEYFIATSTFAHFFENAGFNENRIFDAFGDWTKMQCSSGINHGQKDNREVVKQFLQGKGELPKCEDCGSPMELHMPLNAHFFPDTDANTRFRWFLTGNEEKNVVVLELGVDATSPQLLDPMVNLVQQFSNWHYIAADLANDNLPDDLKKRAIGFGSDTHETLMNLTKEGHHHHHH” here?
**A.** Its value is “soluble”.

**Q.** For “MSHDVKELIEGLNEDLAGEYSAIIMYNHNAATVSGIYRQVLKPFFESEISDEQGHALYLAEKIKTLGGTPTTIPLRVKQAEDVREMLEYARQSEYETIKRYEKRKEQAANLNMTELVVKLEDMIADETNHMEELDRLLNDKAMVLN”, which “soluble on expression in E. coli” value is on record?
**A.** Its value is “soluble”.

**Q.** With “MKSFVLFALFSVAAAQFGGYGRGRGGPGGPGGFEGGPAGAGGFQGNGAGELTYEAKGRLICGLTGVDKVRVVLWDRFRGRENIIYDETNTDVVGNFRLRATRNGFDGNLIQPFLTIYHDCDDASTPGLRKMTVQLPPQYTNQGSLALKSFDIGTWNLETSFAGEELEIQNGGLGGRPIGGSSFGQGNRGQFGGNREIFAHGGRSDFGDSSISV” as the sequence, how does the “soluble on expression in E. coli” value read?
**A.** The value was “not soluble”.

**Q.** Which “soluble on expression in E. coli” value does the source give for “MNTRNFSLPQLQNLPIEEARIVADALAVHATSRQIDSAASKLAALAEAGLKGDRQAYAAYQQLLYVLSLSDDVATAQTRRWLARAIYRVEERFMPAADLSRALSEEDFQKRLEQEIAAQSRERHPMSQYVFSGSASRAQLQVFLRHQWFRTFRLYRDAADLLVNLTDVDEAAALARYLYGELGEEDEKGSHPRLLAKLLEAIGLEADFQAVSTMPEEIAYLNNRARAFRHAEVGWGLAVFYITELVVPGNHEKLYRALLQAGLSEDQAEYYKVHISLVPPRAKREWQLIARRIPDVQFQNAFLTSLSQHFRVERAYYDAIWEEMQSVK” here?
**A.** The value was “soluble”.

**Q.** Which “soluble on expression in E. coli” value does the source give for “MANVLCNRARLVSYLPGFCSLVKRVVNPKAFSTAGSSGSDESHVAAAPPDICSRTVWPDETMGPFGPQDQRFQLPGNIGFDCHLNGTASQKKSLVHKTLPDVLAEPLSSERHEFVMAQYVNEFQGNDAPVEQEINSAETYFESARVECAIQTCPELLRKDFESLFPEVANGQTNDSDWLEHHHHHH” here?
**A.** The value was “soluble”.

**Q.** With “MSLPYSSSGVGHNGFDKADLHIHTKCSDGLFTPEEIVHKAIHVGLKAISITDHDTVTGIDQAKPLALELGLELIPGVEMSSAYKGYDIHILGYFFDYQQSELKGYLDHCRLLRTERAERMVQKLAKMGVKIEIEQIIMKAQNGSVGRPHIAAVLQDEGFVKSFSEAFSKYLGSHSPAYVKSIETHPEEVIRLINEAGGLSFLAHPAQNVPDEILRQLISFGLDGLEIIHPSHDTYRQNYYREIANEYFLLFSGGSDYHGPKDHEDNFGQVWIPYEWVTKMKSRLAPAVKEGHHHHHH” as the sequence, how does the “soluble on expression in E. coli” value read?
**A.** The value was “soluble”.

**Q.** Which “soluble on expression in E. coli” value does the source give for “MKIIDEHTFEGKGYHPFLITDRWQVAYLNYAEAESLEQIEKLDIHHQTDEVFILLQGKAALIGASVTDQNITYDVVNMQPGIVYNIRREVWHKIAMQPGSQVLIIENNDTHLNDFEFFELTESQKSQLRECVTKIVSLTEN” here?
**A.** Its value is “not soluble”.

**Q.** With “MGSDKIHHHHHHMQVNRLFQIIYILLEKNSVTARELAEKIEVSKRTIYRDIETLSTAGIPVYMTKGKGGGISILPNFILNKAILTEEEKSEIISSIRAVNAVNFSDSEAEKVLIKLNSILGENDTDWIEVDFSNWGNAEKEKETFNNLKTAILSKKVVKFDYSSAKGENISRKVCPLKLCFKGQSWYMYGYCGIRNDYRFFKLRRIKDLYVSEESFNIKAPKKIMKEDNVFYDEFITLKMKISSKMAYRIYDEFEDFKKLDDGSFIVTAEYPKGEWLFSYISSFGEECEVLAPQEIREEIKNKIEKMLLNYS” as the sequence, how does the “soluble on expression in E. coli” value read?
**A.** The value was “not soluble”.

**Q.** For “MAHHHHHHMRTSDARPASPSAAPPQSRKYQLSQRPLQLPRPPPRRFLEHPHHNLLPCTSDVKRLMENEYELRRVVRDVLLERLGMEGSHVEPPLRLCTEDSAEVTASPFCAVASVSTPLSSAGESAKQPRCAHDTGLRSMRAPDVDDIAGSSQPTWLMPWLQRLRMEQEKQLRQMRKMLVVARRSVSPDSSDVDARASSLMKTTGEARDDTRTAEPPHALLWQRHRCLPPADRPEAVEACSTLRAMQETMQAQSTQLARLEELLQETLIPDTARRTSHGAGALPLPSPSVHQVEAAAAARANHTGHRSRSNDTVLPTLTHTAASPKKNVRRAVPSRSGCSADVPAAAAAAAAATSSRVSTCVSAPSPPPRLHPEKRTLCGGVH”, which “soluble on expression in E. coli” value is on record?
**A.** Its value is “not soluble”.

**Q.** With “MAHHHHHHMSRYVKYFVQAKRLDKRKRKFGQMDFLELSKELSIPFPLRERNQPKHLDLSKYLNIKVGDLVKVLYGPYKDKEGIVLNINTKRNTVIVDGCNMKKSAWNVTKKNAGSIITQEMPIHITNVAILDPISKKATVVKRRYMMHGECVRISKISGCAMPEPVSVQALKEQNNYELFIHKKKTGPPIKDIYAERDSKNFNLLKKIAYEIKRRRFYEMKNFFRDASPGKGSASPGGGSASLGEGSSSLEG” as the sequence, how does the “soluble on expression in E. coli” value read?
**A.** The value was “not soluble”.

**Q.** Which “soluble on expression in E. coli” value does the source give for “MGSDKIHHHHHHMSERKPIPKSVKKVLRSEVGFGCPVKGCGNPYLEYHHFDPPVSVKPHNEPEGMIALCAQHHKKADGGAYTIEQLHALKKDKANAKLVRGNLDWLRKDLLAVVGGNFYYETPRIITIDNIDLVSLVRDEDGYLRLNVNMLSLEPDERIIIEENSWENIGSPLDLRSPPQGKELEISYHNGDYLYLRFIELQSFEQAQQRYETDVFKDITFPITAVEVNMTIAGTRIELTPISSQLGGIKMTGCLSSHCGGGVVIQNSGIQWKQNPVWKRKTLVEETEHPNVVKVNFGRR” here?
**A.** Its value is “not soluble”.

**Q.** With “MSLKALINGTIYTSFNPLKKVSGLVISHGKVIYAGDSEVAKKIVELSGGEIVDLKGKYVMPAFFDSHLHLDELGMSLEMVDLRGAKSIEELIQRLKRGKGRIIFGFGWDQDELGEWPTRKELNAIDKPVFIYRKCFHVAVANDKMLELLNLTPSKDFDEDTGIIKEKSLEEARKVINERVLTVEDYVYYIKRAQEHLLDLGVKSVSFMSVNEKALRALFYLEREGKLSINVFAYVTPEVLDKLESIGLGRFQGNRLTIAGVKLFTDGSLGARTALLSKPYSDDPSTSGQLVMEREELIRITEKARSLGLDVAIHAIGDKALDVALDVFETTGFPGRIEHASLVRDDQLERVKNLKVRLSVQPHFIISDWWIVERVGEERVKWVYRFKDLMKVAELGFSTDSPIEPADPWLTVDAAVNRGKGKVKLYELTKDQALDIKDALHSYTYGSARVSLASDIGKLEPGFKAEYIILDRDPLVVKEGHHHHHH” as the sequence, how does the “soluble on expression in E. coli” value read?
**A.** The value was “soluble”.

**Q.** With “MNKTIIAERFSKAISTYPREANVQRQIANKMIRLLQKHIPSPCPKVIEFGCGTGIYSRMLLRTLRPEELLLNDLCPEMRYCCEDLLREKQVSFLSGDAETISFPDKSTLITSCSALQWFDSPEEFFKRCNTLLHSQGYFAFSTFGKKNMKEIRELTGKGLPYRSREELEAALSLHFDILYSEEELIPLSFEDPMKVLYHLKQTGVNGLSAQSSLYPKHEKQTWTRRDLQHFCERYTQEFTQGTSVSLTYHPIYIIAKKKKV” as the sequence, how does the “soluble on expression in E. coli” value read?
**A.** Its value is “soluble”.

**Q.** For “MTSLVAYGSDSEGEDDDFFGKPTTEKEETTKNAEKEKEEESEKIAESDEKPTISSFFFSGDDDKAGSSDSDDSEGESVGPKKKRRSGESVTELDKEFTSSIFDNDYAREERMNARMLSRHVDLSDKPSEKERKKSKFTCKNYLKGKCRFGDKCRFSHPVHNRSSDAVNEVSISSEAKFYTTETPEAQVFHSKKFKSSAGQ”, which “soluble on expression in E. coli” value is on record?
**A.** Its value is “not soluble”.

**Q.** Which “soluble on expression in E. coli” value does the source give for “GMSESCILFFVKYPEPGKVKTRLGEVVGNDKAAMLYRHFVQDMLQGLARLHADLHICYVPGDADLPEKFKAWLGPQHMFAAQQGLDLGERMKHAMQKAFDDGYDRVVLMGSDIPDYPCELVQKALNDLQHYDAAIGPAFDGGYYLIGFRKDSFCPDVFDGIRWGEADVYQPTVEKMRRARLEVLQLPDWNDVDTVWDLNVLYRTNKNSSFRRSSTYALLRENDALIRQYDIDLPGMAPVEKE” here?
**A.** Its value is “soluble”.

**Q.** With “MAHHHHHHMNEPDAALEGVVDLTSNNFDSSVGKDVAALVEFYAPWCGHCKNLVPEFAKLGRAAAGAKDKVLIAKVDATAQKDLATRFEVNGYPTILFFPAGSQKPEKYSEGREAKAFVSYLNNQIKGLNLFLPREHKYVMALDQSNFDKVALDEGKDAFVLFYAPWCGHCKRLHPSFESLAKVYQNEKDLIIANVDADDKSNSEVTKRYKVEGYPTLVFFPKGNKGNPVNYEEGRTLDDMIKFVNERTGKKRTSSGDFDKTVGVDETVTNLMKEMAQSSKNKEERERLLAQIQQAVSPKALGEGAMHYIRIATNVLENGHEYISKEHERVGRLLKGSLTGPKRDSLTIRFNILSAIKGE” as the sequence, how does the “soluble on expression in E. coli” value read?
**A.** The value was “soluble”.
